± gives the uncertainty stated by the source.
Assay: amyloid nucleation score (Sup35N fusion, yeast selection) (log enrichment); library NNK3; higher = more nucleation; inactive = no reads after selection
Method in brief: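 Peptides of 20 random codons fused to Sup35N were expressed in psi-negative yeast, induced 24 hours with 100 μM copper sulfate, then grown 7 days at 30°C on medium lacking adenine and uracil. Input and output plasmid inserts were Illumina-sequenced. Nucleation score is the DiMSum log enrichment of output over input reads, centred on the mode score of non-aggregating sequences, excluding sequences with under 100 input reads. Random libraries had three technical output replicates.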

Substance | amyloid nucleation score
LFYCSNCGKGIIQLRVGLYP | inactive
LFYKREALMRGISSFKELSN | inactive
LFYLGIYDFDGNW | inactive
LGDAFWFEIH | inactive
LGFFSSSKLLVGGASASIVS | inactive
LGFHTYRNLGKMHI | inactive
LGGYFLFNIITVGSTGMRKH | 2.06 ± 0.089
LGHVCILVQGGSKVRPTYGS | inactive
LGHYAKPLSSVQQNRTNMGA | inactive
LGKKLDCGDSMRSVRPICRG | inactive
LGNGSLVIG | 0.033 ± 0.27
LGPREQDLINFNWVFQYLKH | inactive
LGSTKSPLSCVY | inactive
LGVCVWQCLGMSIVNALKRL | inactive
LGVMSAVRAIGGFEILIGCV | inactive
LGVRNDPQQSLPVQFGFELE | 0.041 ± 1.2
LGVWRGIGPWRWAKKRWRVA | inactive
LHCFIMLIKCDRVMIVTVQG | inactive
LHITVEIWTLWK | inactive
LHKALQYTKTLSESRRLCNR | inactive
LHLTDLYYGF | inactive
LHPLYRFSANSSKDLFTSRT | inactive
LHQSSTGLSC | inactive

Substance | amyloid nucleation score
LHRLMLTRCVPGFV | -0.443 ± 0.98
LHRSCAIAA | inactive
LHSSNCCNEIVMRNRCWRKF | inactive
LHTPIMRNYR | inactive
LHVLDYDPDLRCFQMLYMCG | inactive
LHVSTRFA | inactive
LIARCKRAIAGGY | inactive
LIASGASIVFSRTESVRCNT | inactive
LICYLYAKMC | inactive
LIGNTSGMILHSTITDEAWL | inactive
LIGSGV | inactive
LIIGCGIFSLNS | 1.94 ± 0.068
LIISCMQFLVYKKCGFSMRH | inactive
LILFPRKRHTGSM | inactive
LILGTNYQIY | 1.27 ± 0.17
LIPIW | inactive
LISMVYLNVRLCQ | inactive
LISTNKRHTAWRYCRGIPLE | inactive
LIYMLCYFRLLPTCGQVINR | inactive
LKDWVRYGVEIQAVSMGILV | 0.221 ± 0.16
LKEQSVQMAWP | inactive
LKFLLRNILVRYYMDVGPVS | inactive
LKGTCFLIPYLVTSGSSLVS | inactive

Substance | amyloid nucleation score
LKLWYPLSFIDVRAPRA | inactive
LKNFIKWRGILPFFGTDFWM | inactive
LKNFKSSAHLMQMIVLNFAY | inactive
LKNSL | inactive
LKPELIGMCGEGGLIAFRSQ | inactive
LKSST | inactive
LKYFQVRT | inactive
LLAGYPLWKPKTCQYMKPWL | 0.125 ± 0.24
LLAMRRIDWCSTPVTLILCR | inactive
LLCLVAKRYGMGRLF | inactive
LLDLDCYASLVSTTLEHMSG | inactive
LLDVYLD | inactive
LLFEMWTWSTVSRRAGDVLS | inactive
LLFRFMTGVVRLPRDNTYRK | inactive
LLGCAYTGSTFHGNVGSFVL | inactive
LLIDCYVDYSC | 0.105 ± 0.24
LLIDNVCSNIARVMHKVWLW | inactive
LLIKDYMHDHLGIILYTEEC | inactive
LLLIGINVKMFWSFRVWLCN | inactive
LLLSLGVLCYP | inactive
LLLWGTHHSMIYYDGCLIFI | inactive
LLLYWRRTMVALRCTYFGLT | inactive
LLNVTHSVAMTRTHGGVTYW | 0.776 ± 0.17

Substance | amyloid nucleation score
LLPKVLLP | inactive
LLSHYFHGMCMTHISGIFVM | inactive
LLSLAYVMRYI | 1.38 ± 0.068
LLSREERTAVLLCTETQ | inactive
LLTHRFVAGFHRKAHSCCDS | inactive
LLVCDREVAFAVACSFPCKR | inactive
LLVMWWYRLTGPDGVSNWR | inactive
LLWCGFQDCEMKC | inactive
LLWYKLSELR | inactive
LLYQFSELQMASWNNKKKEL | inactive
LLYSLWCEMMYPSKGARM | inactive
LLYVKFIVPYTTM | inactive
LMASWTVRTYHGFSISENRN | 0.312 ± 0.26
LMDDTVQMYR | inactive
LMDPNGLVQGLFYMELLT | inactive
LMFNGILNQCSVMYLNRIYK | 2.97 ± 0.081
LMFRTLFK | 0.062 ± 0.62
LMKMHQCDSKVWNEMGDASN | inactive
LMRSREEGAPSDRRSQAYED | inactive
LMVMGVSSCLTFAIDILRNM | 1.13 ± 0.16
LMYTRGFLWGAWINACMSRG | 1.2 ± 0.15
LNAEIL | inactive
LNATKSDCHSLLI | inactive

Substance | amyloid nucleation score
LNCMQVYFICVTWFAC | inactive
LNCPSYPNVGPWNLEVTAFQ | inactive
LNFSHGSCGSFCGSIMIST | inactive
LNILVTC | inactive
LNKHSAYGTDLVYSRLKFVL | inactive
LNLHSSLGMFASLGDMIRVT | inactive
LNLSYGM | inactive
LNLWPNSD | inactive
LNNSTSCEVGKNVCISFKWA | 2.22 ± 0.089
LNPNYRNAYLNYRVLFY | inactive
LNPTAYYVVPLVLALAWISH | inactive
LNRVINYLIKLYFAGWVSHD | inactive
LNSTTCLTAGWIGNAFIACN | inactive
LNTDESWGFMCLTKFE | inactive
LNTPPQVSMGSEGLSFNMSF | inactive
LNTRVGSFTNRLWSRMKEGG | inactive
LNWGLVTDSTFIWLMDTLRL | 1.05 ± 0.11
LNWVKTYVAYLFFYSISKRC | inactive
LPGSDRQFPREAVHYSRMRG | 0.714 ± 0.32
LPICDQTIWFLPSRAVAGNV | inactive
LPICVVMDKRFCTIVISSST | inactive
LPILHSRPVIQETL | inactive
LPSDSGYTGYHVWTLKSTCD | inactive

Substance | amyloid nucleation score
LPTSQA | inactive
LPWSINRCNRVENQLVYVWN | 1.1 ± 0.14
LPYTGIYSRFRDRLWCVLKT | inactive
LQAHCSNFWVFYMAFGPIDF | 1.76 ± 0.095
LQCAHLFPV | 0.931 ± 0.099
LQIPKPFAMKYTMFQRKQND | inactive
LQRGTQVYRCSLSFVRNVRF | inactive
LQRPASEFSERGA | inactive
LQSRF | inactive
LQSVMFLPICFLLT | inactive
LQYHRLGQLPRQNRDTVLLL | inactive
LRCYDILLDA | inactive
LREYFMFPRVHNLFNLV | inactive
LRGCLKSVIDTSLG | inactive
LRGCVNAYLRYHTRGLVVLR | inactive
LRGKDN | inactive
LRIMSIYIEEALSIGHDNWF | 0.205 ± 0.46
LRKRRGPK | inactive
LRKSLTEQPPKGLASRLYWS | inactive
LRSFQWVIVTMPLTRIRSDK | inactive
LRSWPVLHSAISTND | inactive
LRVILQLYIEGLIVQ | inactive
LRVKNDVHGLLELGSVDVSI | inactive

Substance | amyloid nucleation score
LRWSGFIGDAYGYLFKEWGQ | 0.145 ± 0.33
LSASGYQSCSNVMMSTHVSN | inactive
LSCDGNRGTVFVIRIFSGDV | 2.62 ± 0.078
LSDGSHLSECYGFT | inactive
LSDVDPEFLFLLLFFP | inactive
LSDYIGAPFSSKSRDW | inactive
LSFAVKCFRIGDMNAFNTFI | inactive
LSFDVKASWV | inactive
LSFQAMLVR | inactive
LSFWVSYLGIVFLQNICEEW | inactive
LSGADTYRSTTRSYGGNDVV | -0.641 ± 1.1
LSIYRFSCTNSRCLMDLFI | inactive
LSLAVKVIVKG | inactive
LSNDQSDTMEKCRRSVTLW | inactive
LSNRGLIYHEGTRICATYRE | 0.719 ± 0.22
LSQIEGWKCIGWVHYMVDSI | inactive
LSRINSCRLMVQVQLSRT | inactive
LSSGNGSFVRYI | inactive
LSSMWWLVRFYNFAF | inactive
LSTMN | inactive
LSVCVRPWRNKTDVVGNGNK | inactive
LSVHTLHNG | inactive

Source: the supplement of paper PMC12042874
